Here are results for two molecules from paper PMC9825183, “A cap 0-dependent mRNA capture method to analyze the yeast transcriptome”.

In data set [1] the test system is IFIT1 (His-SUMO removed) (Homo sapiens). Briefly: MST. The note with it: apparent Kd; 10 nM RNA, protein up to 1 uM; 5' cap 0 (m7Gppp), Vaccinia Capping System; MST: PBS, 5% glycerol, 0.5 mM TCEP, 0.05% Tween20, 22 C. Pull-down: 50 mM Tris pH 7.5, 150 mM NaCl (wash 250 mM), 1 mM DTT, 5 mM imidazole, 0.01% Tween 20, 3 mM.
A further data set addresses T1, IFIT1 (6xHis) (Homo sapiens, UniProt P09914 1-478).
T1 sequence: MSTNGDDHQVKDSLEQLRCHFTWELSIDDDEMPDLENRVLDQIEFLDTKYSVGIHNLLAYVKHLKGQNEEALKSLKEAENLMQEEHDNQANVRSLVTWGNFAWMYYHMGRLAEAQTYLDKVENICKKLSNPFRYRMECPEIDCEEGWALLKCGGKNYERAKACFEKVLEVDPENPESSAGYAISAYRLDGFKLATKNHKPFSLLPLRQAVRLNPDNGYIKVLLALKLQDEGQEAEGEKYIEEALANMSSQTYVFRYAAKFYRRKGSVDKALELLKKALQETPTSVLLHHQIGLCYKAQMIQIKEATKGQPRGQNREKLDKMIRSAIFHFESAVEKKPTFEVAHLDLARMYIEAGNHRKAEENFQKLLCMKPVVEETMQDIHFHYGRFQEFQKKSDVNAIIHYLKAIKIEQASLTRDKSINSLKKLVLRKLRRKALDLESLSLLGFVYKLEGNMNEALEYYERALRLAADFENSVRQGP
Briefly: pull-down; Con-B; mix of four RNAs; poly(dI-dC) 2 ug/ml; 3 mM MgCl2; MST: PBS, 5% glycerol, 0.5 mM TCEP, 0.05% Tween20, 22 C. Pull-down: 50 mM Tris pH 7.5, 150 mM NaCl (wash 250 mM), 1 mM DTT, 5 mM imidazole, 0.01% Tween 20, 3 mM MgCl2, 2 ug/ml poly(dI-dC), 4 C. The note with it: protein: recombinant; tags: 6xHis (pETG10a; tag described as N-terminal); single-stranded 5' end (predicted).

As for Cap 0-100-mer (Cy5), the Kd in data set [1] came to 47 nM.

B1: cap 0 160-mer (ssRNA)
RNA: GAAUACACGGAAUUCCUUUUUUUUUUUUUUUUUUUUUUUUAAGAAAGGCAGACUGCCACAUGCAGCGCCUCAUUUGGAUGUGUCUGGAGUCUUGGAAGCUUGACUACCCUACGUUCUCCUACAAAUGGACCUUGAGAGCUUGUUUGGAGGUUCUAGCAGG
modifications: 5' cap 0 (m7Gppp), Vaccinia Capping System
Turning to B1, the binding result with IFIT1 (6xHis) is reported as “binds”.
